Starred links: 1 amine or outer side, 2 acyl side, 3 side chain; linkers in the order of their positions; H or OH if unused. Non-standard residues stand in square brackets, D forms with d. Groups on a side chain read outwards from the residue. Primed or numbered codes have the meaning given here. No end group written: not given here. *: point of attachment. C20 diacid = O=C(O)CCCCCCCCCCCCCCCCCCC(=O)*; γGlu = O=C(O)[C@H](CCC(=O)[*:2])N[*:1]; NMeY = CN[C@@H](Cc1ccc(O)cc1)C(=O)O; αMeF = C[C@](N)(Cc1ccccc1)C(=O)O; Lauroyl = CCCCCCCCCCCC(=O)*; dIva = CC[C@@](C)(N)C(=O)O; Iva = CC[C@](C)(N)C(=O)O; PEG2′ = not defined here; PEG3′ = not defined here; Aib = CC(C)(N)C(=O)O

Assay [1] concerns the target T1, human GIPR (human), P48546.
T1 chain: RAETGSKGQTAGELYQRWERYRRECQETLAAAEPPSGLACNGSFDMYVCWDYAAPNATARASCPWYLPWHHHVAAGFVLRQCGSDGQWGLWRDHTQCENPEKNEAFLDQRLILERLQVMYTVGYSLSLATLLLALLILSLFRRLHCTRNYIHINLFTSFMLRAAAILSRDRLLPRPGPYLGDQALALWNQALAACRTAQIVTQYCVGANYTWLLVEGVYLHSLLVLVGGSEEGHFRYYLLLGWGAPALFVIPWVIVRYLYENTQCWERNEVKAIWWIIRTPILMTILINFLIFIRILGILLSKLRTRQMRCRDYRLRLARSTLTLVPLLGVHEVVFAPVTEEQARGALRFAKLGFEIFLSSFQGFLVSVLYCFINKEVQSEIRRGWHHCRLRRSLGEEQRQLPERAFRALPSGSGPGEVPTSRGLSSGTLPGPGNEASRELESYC

Assay [2] deals with T2, human GLP-1R (human), P43220.
T2 chain: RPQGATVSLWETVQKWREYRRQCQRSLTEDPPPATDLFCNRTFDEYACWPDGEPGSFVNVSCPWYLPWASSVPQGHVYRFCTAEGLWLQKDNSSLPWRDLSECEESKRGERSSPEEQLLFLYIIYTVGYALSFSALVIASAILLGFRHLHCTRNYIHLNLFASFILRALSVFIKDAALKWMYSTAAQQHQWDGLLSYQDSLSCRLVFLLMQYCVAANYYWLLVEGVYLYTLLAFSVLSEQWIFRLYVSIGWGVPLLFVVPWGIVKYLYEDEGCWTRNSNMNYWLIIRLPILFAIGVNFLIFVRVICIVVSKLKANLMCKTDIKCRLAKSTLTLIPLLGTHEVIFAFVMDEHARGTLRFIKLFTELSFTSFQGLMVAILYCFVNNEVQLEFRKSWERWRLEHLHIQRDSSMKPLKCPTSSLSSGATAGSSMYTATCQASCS

The target of assay [3] is T1, human GIPR (human), P48546. Briefly: [125I]GIP displacement, hGIPR VLP.

As usually defined, the IC50 is the point on the concentration scale where inhibition reaches its midpoint. Higher therefore signals weaker potency. For [NMeY][Aib]EGTFISDYSIALDRIAQ[Aib]N[αMeF]VNWLLAQRPSSGAPPPSR (not fully specified (C-terminus); ends and bridges not checked) [Compound 72], the Agonist activity (EC50, M) in assay [1] was 2.6e-12 M; in assay [2], 2.3e-07 M. In assay [3], this molecule returned a concentration for half-maximal inhibition (IC50) of 2.7 nM.

Turning to Y[Aib]EGTFISDYSK([PEG(2)-Lauroyl])ALDRIAQ[Aib]NFVNWLLAQRPSSGAPPPS (ends and bridges not checked) [Compound 204], the results for the Agonist activity (EC50, M) in assay [1] and in assay [2] were 8.1e-12 M and 9.5e-09 M, respectively. Besides, in assay [3], the IC50 came to 2.6 nM.

For Y[Aib]EGTFISDYSK([PEG2′-Lauroyl])ALDRIAQQS[αMeF]VNW[Iva]LAQRPSSGAPPPS (not fully specified (C-terminus); ends and bridges not checked) [Compound 221], the Agonist activity (EC50, M) in assay [1] is 7.1e-12 M; in assay [2] it was more than 1e-06 M. In addition, in assay [3], the IC50 worked out at 3 nM.

Y[Aib]EGTFISDYSK([PEG(2)-Lauroyl])[dIva]LDRIAQQDFVNWLLAQRPSSGAPPPSR (ends and bridges not checked) [Compound 199]: the figures for the Agonist activity (EC50, M) in assay [1] and in assay [2] were 3.4e-11 M and more than 1e-06 M, respectively. The molecule also gave a concentration for half-maximal inhibition (IC50) in assay [3] of 2.4 nM.

On to Y[Aib]EGTFISDYSK([PEG(2)-Lauroyl])ALDR[Aib]AQQDFVNWLLAQRPSSGAPPPS (ends and bridges not checked) [Compound 205], for which the results for the Agonist activity (EC50, M) in assay [1] and in assay [2] were 3.4e-12 M and 2.9e-08 M, respectively. Also, in assay [3], the half-maximal inhibitory concentration (IC50) is 1.6 nM.

Consider Y[Aib]EGTFISDYSK([PEG2′-Lauroyl])ALDRIAQQSFVNW[Iva]LAQRPSSGAPPPS (not fully specified (C-terminus); ends and bridges not checked) [Compound 220], for which the Agonist activity (EC50, M) in assay [1] turned out to be 5.3e-12 M; in assay [2], 9.9e-08 M. The molecule also registered an IC50 in assay [3] of 2.9 nM.

For the molecule Y[Aib]EGTFISDYSIALDRK([PEG(2)-C20 diacid])HQQDFVNWLLAQRPSSGAPPPS (not fully specified (C-terminus); ends and bridges not checked) [Compound 234], the Agonist activity (EC50, M) was 1.5e-10 M in assay [1] and more than 1e-06 M in assay [2]. Moreover, in assay [3], the 50% inhibitory concentration (IC50) amounted to 82 nM.

Take Y[Aib]EGTFISDYSK([PEG(2)-Lauroyl])ALDRIHQQSFVNW[Iva]LAQRPSSGAPPPS (not fully specified (C-terminus); ends and bridges not checked) [Compound 222]: the Agonist activity (EC50, M) in assay [1] was 3.7e-12 M; in assay [2] it was more than 1e-06 M. In assay [3], this molecule showed a half-inhibitory concentration (IC50) of 2.9 nM.

Turning to Y[Aib]EGTFISDYSK([PEG2′-Lauroyl])ALDR[Aib]HQ[Aib]NFVNW[Iva]LAQRPSSGAPPPS (not fully specified (C-terminus); ends and bridges not checked) [Compound 215], the Agonist activity (EC50, M) in assay [1] came out at 2.8e-12 M; in assay [2], 1.5e-07 M. Also, the IC50 in assay [3] is 2.8 nM.

For the molecule [NMeY][Aib]EGTFISDYSIALDRIAQQS[αMeF]VNWLLAQRPSSGAPPPSR (not fully specified (C-terminus); ends and bridges not checked) [Compound 71], the Agonist activity (EC50, M) was 2.5e-12 M in assay [1] and more than 1e-06 M in assay [2]. Also, the IC50 in assay [3] is 2.1 nM.

Take Y[Aib]EGTFISDYSK([PEG(2)-Lauroyl])ALDRIHQQS[αMeF]VNW[Iva]LAQRPSSGAPPPS (not fully specified (C-terminus); ends and bridges not checked) [Compound 223]: the Agonist activity (EC50, M) in assay [1] was 5.1e-12 M; in assay [2], more than 1e-06 M. This molecule also yielded an IC50 in assay [3] of 3 nM.

As to Y[Aib]EGTFISDYSK([PEG(2)-Lauroyl])ALDRIAQQSFVNWLLAQRPSSGAPPPS (ends and bridges not checked) [Compound 203], the figures for the Agonist activity (EC50, M) in assay [1] and in assay [2] were 4.3e-12 M and more than 1e-06 M, respectively. For the same molecule, the IC50 in assay [3] was found to be 2.1 nM.

[NMeY][Aib]EGTFISDYSIALDRIAQ[Aib]NFVNW[Iva]LAQRPSSGAPPPSR (not fully specified (C-terminus); ends and bridges not checked) [Compound 68]: the Agonist activity (EC50, M) was 1.7e-12 M in assay [1] and 3.5e-07 M in assay [2]. This molecule also showed a half-inhibitory concentration (IC50) in assay [3] of 2.4 nM.

As to Y[Aib]EGTFISDYSK([PEG(2)-Lauroyl])ALDRIAQ[Aib]NFVNWLLAQRPSSGAPPPSR (ends and bridges not checked) [Compound 197], the Agonist activity (EC50, M) is 5.6e-12 M in assay [1] and 1.1e-08 M in assay [2]. The molecule further gave an IC50 in assay [3] of 2.6 nM.

Take Y[Aib]EGTFISDYSIALDRK([PEG3′-PEG3′-γGlu-C20 diacid])HQQDFVNWLLAQRPSSGAPPPS (not fully specified (C-terminus); ends and bridges not checked) [Compound 237]: the Agonist activity (EC50, M) in assay [1] is 1.6e-10 M; in assay [2] it was more than 1e-06 M. In assay [3], this molecule came in with an IC50 of 110 nM.

As for Y[Aib]EGTFISDYSIALDRK([PEG(2)-Pal])HQ[Aib]NFVNW[Iva]LAQRPSSGAPPPS (not fully specified (C-terminus); ends and bridges not checked) [Compound 240], the figures for the Agonist activity (EC50, M) in assay [1] and in assay [2] were 3e-12 M and 5.8e-09 M, respectively. For the same molecule, the IC50 in assay [3] was determined as 2.4 nM.

For the molecule Y[Aib]EGTFISDYSIALDRK([PEG(2)-dodec])HQQDFVNWLLAQRPSSGAPPPS (not fully specified (C-terminus); ends and bridges not checked) [Compound 232], the Agonist activity (EC50, M) in assay [1] is 3.2e-12 M; in assay [2] it was more than 1e-06 M. In addition, in assay [3], the IC50 is 2.1 nM.

As to Y[Aib]EGTFISDYSK([PEG3′-PEG3′-γGlu-C20 diacid])ALDRIHQQDFVNWLLAQRPSSGAPPPS (not fully specified (C-terminus); ends and bridges not checked) [Compound 238], the Agonist activity (EC50, M) in assay [1] is 8.3e-11 M; in assay [2] it was more than 1e-06 M. For the same molecule, in assay [3], the IC50 amounted to 43 nM.

For the origin of these results see patent US20180298070A1, “PEPTIDE COMPOUND” (Takeda Pharmaceutical Company Limited, published 2018).
